The text below walks through data of article doi:10.1101/2023.06.21.545984.

Test [1] deals with Acinetobacter baumannii 118362 Family 2A encapsulin shell protein (J517_0527) (Acinetobacter baumannii 118362). In words: cryo-EM structure.
Test [2] addresses degraded free cysteine desulfurase that has lost the N-terminal CLD (Acinetobacter baumannii 118362). In words: SEC. (In gel filtration, larger molecules generally elute earlier.)
Test [3] addresses free Acinetobacter baumannii 118362 cysteine desulfurase (construct RB30, C-terminally His6-tagged, tag removed) (Acinetobacter baumannii 118362). Description: SEC.

With “Acinetobacter baumannii 118362 Family 2A encapsulin shell protein (J517_0527) (natural protein)”, in test [1], the stoichiometry N turned out to be 60 subunits.
Consider “Acinetobacter baumannii 118362 cysteine desulfurase (J517_0528), co-expressed from the four-gene operon (enzyme)”, for which the stoichiometry N (CD cargo proteins per encapsulin shell) in test [1] was less than 24.
On to “degraded free cysteine desulfurase that has lost the N-terminal CLD (domain or fragment)”, for which the stoichiometry N in test [2] turned out to be 2.
“free Acinetobacter baumannii 118362 cysteine desulfurase (construct RB30, C-terminally His6-tagged, tag removed) (enzyme)” came in with a stoichiometry N in test [3] of 2.

Broadly, the stoichiometry N is a count of units in the complex or per binding partner.
